Measured values: patent publication US11905559B2, “Materials and methods for controlling gene expression” (priority 2016, dated 2024)
“And” between values parts separate entries of the source, which are not always exact repeats. Equal values may be shown once.

Assay: Constant-force (CF) single-molecule optical tweezers folding assay of guanine-aptamer RNAs in guanine buffer
Assay type: physicochemical
Conditions: for ΔG (0): zero force
Description: The aptamer folding was monitored in real time using a constant-force (CF) assay. Equilibrium sampling techniques provide unprecedented insights into the rare events in the course of folding that are otherwise difficult to identify. The technique also allows for determination of the kinetic rates that has not been fully investigated in the guanine riboswitch. The relative dynamics of the helices have been investigated in ensemble and smFRET experiments, which indicated a non-dynamic P1-P3, upon which the P2 helix switches conformations. As shown in FIG. 6A (left panel), the RNA oscillated between the linear and the hairpin conformations (E↔D↔C) at 13 pN. The distances ΔXED=7.1±0.4 nm and ΔXDC=7.9±0.4 nm correspond to the folding of a 17±1 nt (P2) and 19±1 nt (P3) respectively (FIGS. 7A-B). The conversion of distances to nucleotides in CF assay are described in Table 2.
A miniaturized dual beam optical tweezers instrument was constructed with a sampling rate of 0.4, 4 and 40 kHz. Typically, in the tweezers set up (FIGS. 2A-E), a single-molecule of RNA is held between two beads via ˜550 nucleotide (nt) long Handles A and B. Preparation of Handles and the RNA is described in the section above. The streptavidin coated polystyrene bead (diameter 1.5-1.9 μm, Spherotech Inc.) is fixed on a micropipette via suction, and the anti-digoxigenin coated bead (diameter 4.0-4.9 μm, Spherotech Inc.) is held in the dual counter-propagating laser beam. The trap stiffness, K is measured at 0.04-0.06 pN/nm from the power spectrum analysis of the Brownian motion of the trapped bead. For power spectrum analysis, a polystyrene bead with diameter ˜4.6 μm is trapped in the counter-propagating laser beam in aqueous buffer with a fixed trap position. […] The average from 10 beads yielded K˜0.049±0.0008 pN/nm, and the stoke's drag coefficient, y=0.0364±0.0002 pN. s/μm. […] However, the autocorrelation time (τ0) defined as the τ1=1/2πfc as described by Zoldak et al., “Ultrafast folding kinetics and cooperativity of villin headpiece in single-molecule force spectroscopy”. Proc. Natl. Acad. Sci. U.S.A 110, 18156 (2013) sets the detection limit for the observable kinetics, which is different from the sampling frequencies. […] The ACF for the time series of force signal, Fi, with sampling rate δ and N data points, is calculated as,
In a constant-force (CF) experiment, the RNA is held at a preset force through feedback control. The preset force typically fluctuated around the mean with a standard deviation ±0.15 pN. In this mode, data is recorded from 4-40 kHz to capture the fast intermediates. The plots are shown as extension vs. time (as in FIG. 6A). In force-jump (FJ) assay, the force is suddenly jumped from one force to another, and then held constant thereafter, as shown in FIGS. 23A-B.
All FR, CF and FJ experiments were carried out at an ambient temperature, 25±0.5° C. The buffer in the microfluidics contained 10 mM Tris-HCl, pH 7.5 at 25° C., 250 mM NaCl, 3 mM MgCl2, and purine concentrations as indicated in wild-type aptamer. Unless stated otherwise, Mg^2+ concentration in the buffer was maintained at 3 mM in all experiments. The buffer in mutant m1 contained 5 mm Mg^2+ and 1 μM G, and in m3 contained 5 mM Mg^2+ and 200 nM Guanine. For the remaining m2, m4, m5 and m6 mutants, the buffer in single-molecule experiments was supplemented only with 3 mM Mg^2+ and 200 nM Guanine.
In the force-ramp experiment, the trap was moved away (pull cycle) from the micropipette at 200 nm/sec, which corresponded to a loading rate of 7-8 pN/sec. This movement of the trap exerted a tension at the ends of the tethered RNA aptamer. […] In the constant-force (CF) experiment, the RNA was held at a preset force (FIG. 6A). The loading rate in CF experiments was zero. The preset force typically fluctuated around the mean with standard deviation ±0.15 pN. […]

[1] = transition C′A (merged C′B and BA), F 6.1 pN, 5 mM Mg^2+, 1 uM G
[2] = transition DC (P3 folding), F 12.0 pN, 5 mM Mg^2+, 1 uM G
[3] = transition ED (P2 folding), F 13.5 pN, 5 mM Mg^2+, 1 uM G
[4] = transition BA (P1 folding), 3 mM Mg^2+, 200 nM G (rates at 8.5 pN)
[5] = transition BA (P1 folding), F 8.5 pN, 3 mM Mg^2+, 200 nM G
[6] = transition BA (P1 folding), F 8.5 pN, 3 mM Mg^2+, 200 nM G, no helix width adjustment
[7] = transition BA (P1 folding), from data at 8.5 pN, 3 mM Mg^2+, 200 nM G
[8] = transition C′B (L2-L3 folding), 3 mM Mg^2+, 200 nM G (rates at 8.5 pN)
[9] = transition C′B (L2-L3 folding), F 8.5 pN, 3 mM Mg^2+, 200 nM G
[10] = transition C′B (L2-L3 folding), from data at 8.5 pN, 3 mM Mg^2+, 200 nM G
[11] = transition DC (P3 folding), 3 mM Mg^2+, 200 nM G (rates at 13 pN)
[12] = transition DC (P3 folding), F 13 pN, 3 mM Mg^2+, 200 nM G
[13] = transition DC (P3 folding), from data at 13 pN, 3 mM Mg^2+, 200 nM G
[14] = transition ED (P2 folding), 3 mM Mg^2+, 200 nM G (rates at 13 pN)
[15] = transition ED (P2 folding), F 13 pN, 3 mM Mg^2+, 200 nM G
[16] = transition ED (P2 folding), from data at 13 pN, 3 mM Mg^2+, 200 nM G
[17] = transition BA (P1 folding), F 8.0 pN, 3 mM Mg^2+, 1 uM G
[18] = transition C′B (L2-L3 folding), F 8.0 pN, 3 mM Mg^2+, 1 uM G
[19] = transition DC (P3 folding), F 12.0 pN, 3 mM Mg^2+, 1 uM G
[20] = transition ED (P2 folding), F 13.5 pN, 3 mM Mg^2+, 1 uM G

Molecule | Equilibrium force F^eq [4] | Folding rate kf [5] | Unfolding rate ku [5] | Transition distance ΔX [6] | ΔG (0) [7] | Equilibrium force F^eq [8] | Folding rate kf [9] | Transition distance ΔX [9] | Unfolding rate ku [9] | ΔG (0) [10] | Equilibrium force F^eq [11] | Folding rate kf [12] | Transition distance ΔX [12] | Unfolding rate ku [12] | ΔG (0) [13] | Equilibrium force F^eq [14] | Folding rate kf [15] | Transition distance ΔX [15] | Unfolding rate ku [15] | ΔG (0) [16] | other results
m1: m1 mutant guanine sensing aptamer RNA (SEQ ID NO: 2); G37 replaced with adenine in the L2 loop (nucleic acid, RNA, backbone and methylation of C not given here, G37 replaced with adenine in the L2 loop) CACUCAUAUAAUCGCGUGGAUAUAGCACGCAAGUUUCUACCGGGCACCGUAAAUGUCCGACUAUGGGUG | – | – | – | – | – | – | – | – | – | – | – | – | – | – | – | – | – | – | – | – | Equilibrium force F^eq (transition C′A (merged C′B and BA), 5 mM Mg^2+, 1 uM G (rates at 6.1 pN)): 6 pN and 6.0 ± 0.03 pN; Folding rate kf [1]: 0.6 ± 0.05 s⁻¹; Transition distance ΔX [1]: 12.4 ± 0.3 nm; Unfolding rate ku [1]: 0.6 ± 0.05 s⁻¹; ΔG (0) (transition C′A (merged C′B and BA), from data at 6.1 pN, 5 mM Mg^2+, 1 uM G): −12.4 ± 0.5 kBT; Equilibrium force F^eq (transition DC (P3 folding), 5 mM Mg^2+, 1 uM G (rates at 12.0 pN)): 12.2 ± 0.01 pN; Folding rate kf [2]: 20.7 ± 0.4 s⁻¹; Transition distance ΔX [2]: 7.7 ± 0.3 nm; Unfolding rate ku [2]: 15.2 ± 0.3 s⁻¹; ΔG (0) (transition DC (P3 folding), from data at 12.0 pN, 5 mM Mg^2+, 1 uM G): −15.9 ± 0.9 kBT; Equilibrium force F^eq (transition ED (P2 folding), 5 mM Mg^2+, 1 uM G (rates at 13.5 pN)): 13.4 ± 0.01 pN; Folding rate kf [3]: 11.8 ± 0.3 s⁻¹; Transition distance ΔX [3]: 7.2 ± 0.2 nm; Unfolding rate ku [3]: 15.1 ± 0.3 s⁻¹; ΔG (0) (transition ED (P2 folding), from data at 13.5 pN, 5 mM Mg^2+, 1 uM G): −16.6 ± 0.7 kBT
m6: m6 mutant guanine sensing aptamer RNA (SEQ ID NO: 7); U67A, shorter P3 hairpin and larger L3 loop (nucleic acid, RNA, backbone and methylation of C not given here, U67A, shorter P3 hairpin and larger L3 loop) CACUCAUAUAAUCGCGUGGAUAUGGCACGCAAGUUUCUACCGGGCACCGUAAAAGUCCGACUAUGGGUG | 8.3 ± 0.3 pN | 0.7 ± 0.02 s⁻¹ | 1.0 ± 0.1 s⁻¹ | 9.8 ± 0.2 nm | −13.9 ± 0.4 kBT | 7.2 ± 0.5 pN | 7.5 ± 0.2 s⁻¹ | 3.5 ± 0.2 nm | 23.9 ± 0.6 s⁻¹ | −6.1 ± 0.4 kBT | 10.6 ± 0.1 pN | 1.1 ± 0.03 s⁻¹ | 7.3 ± 0.1 nm | 115.4 ± 4.4 s⁻¹ | −11.1 kBT and −11.1 ± 0.3 kBT | 13.8 ± 0.03 pN | 23.9 ± 0.5 s⁻¹ | 7.1 ± 0.1 nm | 7.2 ± 0.2 s⁻¹ | −17.1 ± 0.3 kBT | L2-L3 kissing faster than wild-type (C′B folding rate): 8.33 times
m7: m7 mutant guanine sensing aptamer RNA (SEQ ID NO: 8); U25C in J1/2 (nucleic acid, RNA, backbone and methylation of C not given here) CACUCAUAUAACCGCGUGGAUAUGGCACGCAAGUUUCUACCGGGCACCGUAAAUGUCCGACUAUGGGUG | – | – | – | – | – | – | – | – | – | – | – | – | – | – | – | – | – | – | – | – | Equilibrium force F^eq (transition BA (P1 folding), 3 mM Mg^2+, 1 uM G (rates at 8.0 pN)): 7.4 ± 0.2 pN; Folding rate kf [17]: 0.5 ± 0.08 s⁻¹; Transition distance ΔX [17]: 9.6 ± 0.3 nm; Unfolding rate ku [17]: 1.7 ± 0.4 s⁻¹; ΔG (0) (transition BA (P1 folding), from data at 8.0 pN, 3 mM Mg^2+, 1 uM G): −11.8 kBT and −11.8 ± 0.6 kBT; Equilibrium force F^eq (transition C′B (L2-L3 folding), 3 mM Mg^2+, 1 uM G (rates at 8.0 pN)): 8.1 ± 0.4 pN; Folding rate kf [18]: 0.9 ± 0.2 s⁻¹; Transition distance ΔX [18]: 3.5 ± 0.2 nm; Unfolding rate ku [18]: 1.2 ± 0.2 s⁻¹; ΔG (0) (transition C′B (L2-L3 folding), from data at 8.0 pN, 3 mM Mg^2+, 1 uM G): −6.5 kBT and −6.5 ± 0.5 kBT; Equilibrium force F^eq (transition DC (P3 folding), 3 mM Mg^2+, 1 uM G (rates at 12.0 pN)): 11.8 ± 0.05 pN; Folding rate kf [19]: 16.6 ± 0.5 s⁻¹; Transition distance ΔX [19]: 7.6 ± 0.2 nm; Unfolding rate ku [19]: 28.3 ± 1.0 s⁻¹; ΔG (0) (transition DC (P3 folding), from data at 12.0 pN, 3 mM Mg^2+, 1 uM G): −14.8 ± 0.6 kBT; Equilibrium force F^eq (transition ED (P2 folding), 3 mM Mg^2+, 1 uM G (rates at 13.5 pN)): 13.3 ± 0.05 pN; Folding rate kf [20]: 10.0 ± 0.3 s⁻¹; Transition distance ΔX [20]: 7.1 ± 0.3 nm; Unfolding rate ku [20]: 20.1 ± 0.5 s⁻¹; ΔG (0) (transition ED (P2 folding), from data at 13.5 pN, 3 mM Mg^2+, 1 uM G): −15.8 ± 1.0 kBT
m4: m4 mutant guanine sensing aptamer RNA (SEQ ID NO: 5); A59G/U67C in the P3 hairpin (nucleic acid, RNA, backbone and methylation of C not given here, A59G/U67C in the P3 hairpin) CACUCAUAUAAUCGCGUGGAUAUGGCACGCAAGUUUCUACCGGGCGCCGUAAACGUCCGACUAUGGGUG | 8.0 ± 0.1 pN | 0.33 ± 0.02 s⁻¹ | 1.0 ± 0.1 s⁻¹ | 9.5 ± 0.3 nm | −12.5 kBT and −12.5 ± 0.6 kBT | 7.6 ± 0.1 pN | 0.22 ± 0.02 s⁻¹ | 3.4 ± 0.1 nm | 0.56 ± 0.04 s⁻¹ | −6.1 ± 0.2 kBT | 13.0 ± 0.02 pN | 16.3 ± 0.3 s⁻¹ | 7.8 ± 0.2 nm | 16.5 ± 0.4 s⁻¹ | −17.3 ± 0.6 kBT | 13.9 ± 0.01 pN | 34.8 ± 1.1 s⁻¹ | 7.2 ± 0.2 nm | 8.8 ± 0.2 s⁻¹ | −17.6 ± 0.6 kBT | L2-L3 kissing rate reduced versus wild-type (C′B folding rate): 4.5 fold; Barrier ΔGkiss^‡ prior to the L2-L3 interactions (free energy landscape transformed to zero force): ~8.4 kBT; Increase of P3 stability ΔG(0) versus wild-type (transition DC): 1 kT
